From the supplement of paper PMC7877785
± gives the uncertainty stated by the source.

Assay: self-splicing fitness, log relative to wild type (ln ratio); higher = more splicing; Tetrahymena group I intron in knt gene, E. coli kanamycin selection, DiMSum; sequences stand for … in CUCUCU…GGAGGGAAAAGUUAUCAGGCAUGCACCUGGUAGCUAGUCUUUAAACCAAUAGAUUGCAUCGGUUUAAAAGGCAAGACCGUCAAAUUGCGGGAAAGGGGUCAACAGCCGUUCAGUACCAAGUCUCAGGGGAAACUUUGAGAUGGCCUUGCAAAGGGUAUGGUAAUAAGCUGACGGACAUGGUCCUAACCACGCAGCCAAGUCCUAAGUCAACAGAUCUUCUGUUGAUAUGGAUGCAGUUCACAGACUAAAUGUCGGUCGGGGAAGAUGUAUUCUUCUCAUAAGAUAUAGUCGGACCUCUCCUUAAUGGGAGCUAGCGGAUGAAGUGAUGCAACACUGGAGCCGCUGGGAACUAAUUUGUAUGCGAAAGUAUAUUGAUUAGUUUUGGAGUACUCGUGGUCG
Outline: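 A randomised library covering all eight P1ex-region intron nucleotides was built with the intron in the knt kanamycin-resistance gene on pET-22b(+) and held in E. coli BL21(DE3). Cells were grown overnight at 37°C or 30°C on LB agar, with or without 25 μg/mL kanamycin, plus 100 μg/mL carbenicillin, 50 μM IPTG and 0.2% rhamnose, and pooled colonies were amplicon-sequenced on an Illumina HiSeq 2500. DiMSum fitness is the error-weighted combination of wild-type-normalised replicate fold changes, kanamycin versus none.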

Sequence	self-splicing fitness (ln) (30 °C)	self-splicing fitness (ln) (37 °C)
GGGCAGCAAUAUUACGGUAC	-1.73 ± 0.097	-0.144 ± 0.1
GGGCAGCAAUAUUACGGUGC	-2.21 ± 0.13	-1.8 ± 0.089
GGGCAGCAAUAUUACGUAGU	-0.605 ± 0.086	-0.727 ± 0.11
GGGCAGCAAUAUUACGUAUG	-3.15 ± 0.23	-1.44 ± 0.22
GGGCAGCAAUAUUACGUAUU	-0.944 ± 0.061	0.0363 ± 0.074
GGGCAGCAAUAUUACGUUGU	-2.7 ± 0.16	-2.77 ± 0.19
GGGCAGCAAUAUUACGUUUC	-2.2 ± 0.094	-0.672 ± 0.098
GGGGAGCAAUAUUACGACAG	-3.9 ± 0.39	-2.33 ± 0.39
GGGGAGCAAUAUUACGACGC	-0.34 ± 0.15	0.117 ± 0.2
GGGGAGCAAUAUUACGAGGG	-2.13 ± 0.19	
GGGGAGCAAUAUUACGAUGC	-1.06 ± 0.42	
GGGGAGCAAUAUUACGCACA	-2.37 ± 0.43	-0.994 ± 0.34
GGGGAGCAAUAUUACGCUAG	-2.63 ± 0.27	
GGGGAGCAAUAUUACGCUCA	-1.05 ± 0.15	-0.61 ± 0.21
GGGGAGCAAUAUUACGCUUC	-3.28 ± 0.4	-2.12 ± 0.49
GGGGAGCAAUAUUACGGCUG	-2.72 ± 0.15	-1.09 ± 0.22
GGGGAGCAAUAUUACGUACU	-1.58 ± 0.17	-0.886 ± 0.16
GGGGAGCAAUAUUACGUCCG	-0.963 ± 0.13	-0.326 ± 0.2
GGGGAGCAAUAUUACGUCUG	-2.55 ± 0.37	-1.24 ± 0.24
GGGUAGCAAUAUUACGAAAC	-1.26 ± 0.32	-0.11 ± 0.4
GGGUAGCAAUAUUACGAAGU	-1.74 ± 0.23	-1.57 ± 0.24
GGGUAGCAAUAUUACGAUCA	-0.0146 ± 0.13	0.0752 ± 0.16
GGGUAGCAAUAUUACGCAGA	-2.97 ± 0.28	-1.93 ± 0.26
GGGUAGCAAUAUUACGCCUG	-1.42 ± 0.12	-0.219 ± 0.14
GGGUAGCAAUAUUACGCUAA	-1.32 ± 0.29	-0.0326 ± 0.25

Sequence	self-splicing fitness (ln) (30 °C)	self-splicing fitness (ln) (37 °C)
GGGUAGCAAUAUUACGCUUU	-0.389 ± 0.11	-0.688 ± 0.12
GGGUAGCAAUAUUACGGAAC	-0.98 ± 0.11	-1.49 ± 0.19
GGGUAGCAAUAUUACGGAGA	-4.31 ± 0.3	-3.19 ± 0.23
GGGUAGCAAUAUUACGGGAG	-2.54 ± 0.28	-1.44 ± 0.25
GGGUAGCAAUAUUACGGUCG	-0.207 ± 0.12	-0.642 ± 0.096
GGGUAGCAAUAUUACGUAUC	-1.3 ± 0.21	-0.963 ± 0.24
GGGUAGCAAUAUUACGUAUU	-0.286 ± 0.07	-1.06 ± 0.11
GGGUAGCAAUAUUACGUGAA	-1.36 ± 0.13	-0.147 ± 0.16
GGGUAGCAAUAUUACGUGUG	-1.65 ± 0.11	-1.24 ± 0.12
GGGUAGCAAUAUUACGUUAA	-1.72 ± 0.16	-0.668 ± 0.13
GGGUAGCAAUAUUACGUUAG		-1.78 ± 0.43
GGUAAGCAAUAUUACGACCC	-1.6 ± 0.26	-1.75 ± 0.43
GGUAAGCAAUAUUACGAGAU	-2.94 ± 0.25	-1.2 ± 0.16
GGUAAGCAAUAUUACGAGUG	-2 ± 0.16	-3.17 ± 0.13
GGUAAGCAAUAUUACGAUAA	-1.43 ± 0.092	-0.994 ± 0.13
GGUAAGCAAUAUUACGCAGC	-0.901 ± 0.24	-1.19 ± 0.23
GGUAAGCAAUAUUACGCCGG	-3.09 ± 0.47	-1.93 ± 0.47
GGUAAGCAAUAUUACGCGAU	-2.17 ± 0.3	
GGUAAGCAAUAUUACGCUUU	-1.88 ± 0.24	-2.02 ± 0.33
GGUAAGCAAUAUUACGGAUC	0.0183 ± 0.15	0.125 ± 0.21
GGUAAGCAAUAUUACGGCCA	-1.91 ± 0.39	
GGUAAGCAAUAUUACGGGCU	-1.76 ± 0.13	-0.874 ± 0.12
GGUAAGCAAUAUUACGGUAC	-1.32 ± 0.08	-0.815 ± 0.13
GGUAAGCAAUAUUACGGUGA	-1.45 ± 0.12	-0.756 ± 0.13
GGUAAGCAAUAUUACGGUGG	-2.82 ± 0.12	-3.18 ± 0.24

Sequence	self-splicing fitness (ln) (30 °C)	self-splicing fitness (ln) (37 °C)
GGUAAGCAAUAUUACGUCAU	-0.725 ± 0.14	0.713 ± 0.2
GGUAAGCAAUAUUACGUCCA	-0.363 ± 0.14	-0.817 ± 0.16
GGUAAGCAAUAUUACGUCCG	-0.859 ± 0.11	-0.41 ± 0.15
GGUAAGCAAUAUUACGUGUU	-1.4 ± 0.075	-0.901 ± 0.083
GGUAAGCAAUAUUACGUUAU	-2.4 ± 0.17	-2.3 ± 0.24
GGUAAGCAAUAUUACGUUCU	-1.44 ± 0.12	-0.359 ± 0.12
GGUAAGCAAUAUUACGUUGG	-2.59 ± 0.38	-1.99 ± 0.39
GGUAAGCAAUAUUACGUUGU	-3.1 ± 0.26	-1.61 ± 0.36
GGUCAGCAAUAUUACGACGG	-0.435 ± 0.14	-0.175 ± 0.16
GGUCAGCAAUAUUACGAGAG	-3.37 ± 0.42	-1.16 ± 0.25
GGUCAGCAAUAUUACGCACG	0.0799 ± 0.1	0.287 ± 0.13
GGUCAGCAAUAUUACGCAGU	-1.33 ± 0.11	-0.639 ± 0.13
GGUCAGCAAUAUUACGCAUA	-0.703 ± 0.088	-0.214 ± 0.11
GGUCAGCAAUAUUACGCCGG	-2.68 ± 0.27	-2.79 ± 0.3
GGUCAGCAAUAUUACGCCUC	-0.643 ± 0.12	0.0345 ± 0.14
GGUCAGCAAUAUUACGCGGG		-2.61 ± 0.28
GGUCAGCAAUAUUACGGCGC	-0.127 ± 0.12	-0.0173 ± 0.14
GGUCAGCAAUAUUACGGGAU	-1.12 ± 0.16	-2.85 ± 0.38
GGUCAGCAAUAUUACGGGGA	-1.25 ± 0.17	-1.87 ± 0.2
GGUCAGCAAUAUUACGUAAC	-1.32 ± 0.14	-0.628 ± 0.16
GGUCAGCAAUAUUACGUAAG	-1.87 ± 0.15	-0.22 ± 0.18
GGUCAGCAAUAUUACGUAUC	-0.892 ± 0.078	-0.138 ± 0.1
GGUCAGCAAUAUUACGUGCA	0.0844 ± 0.11	0.539 ± 0.15
GGUCAGCAAUAUUACGUGCC	-2.9 ± 0.23	-0.811 ± 0.26
GGUCAGCAAUAUUACGUGUU	-0.208 ± 0.047	0.537 ± 0.063

Sequence	self-splicing fitness (ln) (30 °C)	self-splicing fitness (ln) (37 °C)
GGUCAGCAAUAUUACGUUAG	-2.17 ± 0.14	-1.68 ± 0.18
GGUCAGCAAUAUUACGUUGC	-1.98 ± 0.098	-0.999 ± 0.1
GGUGAGCAAUAUUACGAACC		-2.72 ± 0.22
GGUGAGCAAUAUUACGCGCA	-0.814 ± 0.21	-0.146 ± 0.21
GGUGAGCAAUAUUACGGAGU	-3.25 ± 0.26	-1.9 ± 0.19
GGUGAGCAAUAUUACGGAUA	-2.24 ± 0.18	-1.88 ± 0.22
GGUGAGCAAUAUUACGGAUU	-0.567 ± 0.14	-1.26 ± 0.19
GGUGAGCAAUAUUACGGCAU	-1.66 ± 0.25	-1.05 ± 0.28
GGUGAGCAAUAUUACGGCCU	-2.79 ± 0.26	-2.96 ± 0.43
GGUGAGCAAUAUUACGGGAU	-3.28 ± 0.41	-2.62 ± 0.34
GGUGAGCAAUAUUACGGUAA		-2.66 ± 0.4
GGUGAGCAAUAUUACGGUAG	-2.67 ± 0.22	-2.59 ± 0.33
GGUGAGCAAUAUUACGGUAU	-3.49 ± 0.23	-3 ± 0.4
GGUGAGCAAUAUUACGGUCU	-0.893 ± 0.14	-0.768 ± 0.2
GGUGAGCAAUAUUACGUAAG	-3.05 ± 0.45	-2.22 ± 0.28
GGUGAGCAAUAUUACGUAGC	-2.64 ± 0.3	-1.27 ± 0.29
GGUGAGCAAUAUUACGUCAC	-3.1 ± 0.34	
GGUGAGCAAUAUUACGUCUC	-1.28 ± 0.19	-1.61 ± 0.22
GGUGAGCAAUAUUACGUCUU	-0.609 ± 0.2	0.239 ± 0.25
GGUGAGCAAUAUUACGUGGA	-2.86 ± 0.36	-3.3 ± 0.28
GGUGAGCAAUAUUACGUUCG	-2.65 ± 0.37	-2.44 ± 0.32
GGUGAGCAAUAUUACGUUUU	-2.94 ± 0.26	-1.6 ± 0.23
GGUUAGCAAUAUUACGAAAU	-1.45 ± 0.11	-0.492 ± 0.14
